Experimental findings from the supplement of paper PMC5998384 are described below.

Data set [1] concerns HeLa Kyoto. As to the kind of experiment: solubility in G1/S (NP-40 vs SDS abundance) (log2 ratio); higher = more soluble. Particulars: cell cycle stage: G1/S.
Data set [2] deals with HeLa Kyoto. The data set can be described thus: thermal stability score vs G1/S (z-score of summed log2 fold changes over temperatures); higher = more thermally stable than in G1/S.
Data set [3] has as its system HeLa Kyoto. The data set can be described thus: melting temperature (median over replicates), in situ; higher = more thermally stable.
Data set [4] relates to HeLa Kyoto. As to the kind of experiment: solubility change mitosis vs G1/S (difference of NP-40 vs SDS log2 ratios) (log2 ratio difference); higher = more soluble in mitosis.
The mark [5] stands for this setting: cell cycle stage: early G1 (4.5 h after nocodazole release).
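Throughout, for melting temperature (median over replicates), in situ: HeLa Kyoto cells synchronized by double thymidine or nocodazole block, proteins quantified by TMT10plex mass spectrometry, three independent biological replicates.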
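Throughout, for solubility change mitosis vs G1/S (difference of NP-40 vs SDS log2 ratios): synchronized HeLa Kyoto cells (double thymidine block for G1/S, nocodazole release for mitosis), protein amounts in NP-40 versus SDS lysates quantified by mass spectrometry, three biological replicates.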
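Throughout, for solubility in G1/S (NP-40 vs SDS abundance): HeLa Kyoto cells arrested at G1/S by double thymidine block, proteins quantified by TMT10plex mass spectrometry in mild NP-40 versus SDS extracts, three biological replicates.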
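Throughout, for thermal stability score vs G1/S (z-score of summed log2 fold changes over temperatures): synchronized HeLa Kyoto cells, proteins quantified by TMT10plex mass spectrometry, three biological replicates, mitosis taken 0.5 h after nocodazole release, G1/S directly after double thymidine block.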

Consider “MPRVYIGRLSYQARERDVERFFKGYGKILEVDLKNGYGFVEFDDLRDADDAVYELNGKDLCGERVIVEHARGPRRDGSYGSGRSGYGYRRSGRDKYGPPTRTEYRLIVENLSSRCSWQDLKDYMRQAGEVTYADAHKGRKNEGVIEFVSYSDMKRALEKLDGTEVNGRKIRLVEDKPGSRRRRSYSRSRSHSRSRSRSRHSRKSRSRSGSSKSSHSKSRSRSRSGSRSRSKSRSRSQSRSRSKKEKSRSPSKEKSRSRSHSAGKSRSKSKDQAEEKIQNNDNVGKPKSRSPSRHKSKSKSRSRSQERRVEEEKRGSVSRGRSQEKSLRQSRSRSRSKGGSRSRSRSRSKSKDKRKGRKRSREESRSRSRSRSKSERSRKRGSKRDSKAGSSKKKKKEDTDRSQSRSPSRSVSKEREHAKSESSQREGRGESENAGTNQETRSRSRSNSKSKPNLPSESRSRSKSASKTRSRSKSRSRSASRSPSRSRSRSHSRS [SRSF4]”, for which, in the data set on HeLa Kyoto [1], the “solubility in G1/S (log2)” value is -0.671. Further, the thermal stability score in the data set with HeLa Kyoto [2] (setting [5]) was -1.55; with HeLa Kyoto [2] (cell cycle stage: mitosis), -1. Besides, the melting temperature came out at 50.7 °C in the data set on HeLa Kyoto [3] (cell cycle stage: G1/S) and 50.2 °C in the data set with HeLa Kyoto [3] (cell cycle stage: mitosis). In the data set on HeLa Kyoto [4], the “solubility change mitosis (log2)” value is 0.361.

On to FNDC3B, for which, in the data set on HeLa Kyoto [1], the “solubility in G1/S (log2)” value was -0.0341. The thermal stability score in the data set on HeLa Kyoto [2] (setting [5]) turned out to be 1.73; with HeLa Kyoto [2] (cell cycle stage: mitosis), 3.59. Moreover, the melting temperature was 47.9 °C in the data set with HeLa Kyoto [3] (cell cycle stage: G1/S) and 50.5 °C with HeLa Kyoto [3] (cell cycle stage: mitosis). For the same substance, in the data set on HeLa Kyoto [4], the “solubility change mitosis (log2)” value was determined as 0.0529.

As to “MAAVVVAAAGGAGPAVLQVAGLYRGLCAVRSRALGLGLVSPAQLRVFPVRPGSGRPEGGADSSGVGAEAELQANPFYDRYRDKIQLLRRSDPAAFESRLEKRSEFRKQPVGHSRQGDFIKCVEQKTDALGKQSVNRGFTKDKTLSSIFNIEMVKEKTAEEIKQIWQQYFAAKDTVYAVIPAEKFDLIWNRAQSCPTFLCALPRREGYEFFVGQWTGTELHFTALINIQTRGEAAASQLILYHYPELKEEKGIVLMTAEMDSTFLNVAEAQCIANQVQLFYATDRKETYGLVETFNLRPNEFKYMSVIAELEQSGLGAELKCAQNQNKT [ATPAF1]”, the “solubility in G1/S (log2)” value in the data set with HeLa Kyoto [1] turned out to be 0.199. Moreover, the thermal stability score amounted to 1.88 in the data set with HeLa Kyoto [2] (setting [5]) and 1.83 in the data set with HeLa Kyoto [2] (cell cycle stage: mitosis). Moreover, the melting temperature with HeLa Kyoto [3] (cell cycle stage: G1/S) stood at 51.4 °C; in the data set with HeLa Kyoto [3] (cell cycle stage: mitosis), 51.5 °C. In addition, the “solubility change mitosis (log2)” value in the data set on HeLa Kyoto [4] is -0.00439.

With “MRHLPYFCRGQVVRGFGRGSKQLGIPTANFPEQVVDNLPADISTGIYYGWASVGSGDVHKMVVSIGWNPYYKNTKKSMETHIMHTFKEDFYGEILNVAIVGYLRPEKNFDSLESLISAIQGDIEEAKKRLELPEHLKIKEDNFFQVSKSKIMNGH [RFK]”, in the data set on HeLa Kyoto [1], the “solubility in G1/S (log2)” value was found to be 0.518. The thermal stability score in the data set with HeLa Kyoto [2] (setting [5]) is 0.0986; in the data set with HeLa Kyoto [2] (cell cycle stage: mitosis), -0.44. Further, the melting temperature in the data set with HeLa Kyoto [3] (cell cycle stage: G1/S) was determined as 52.7 °C; with HeLa Kyoto [3] (cell cycle stage: mitosis) it was 54.1 °C. Besides, the “solubility change mitosis (log2)” value in the data set with HeLa Kyoto [4] was -0.114.

As for “MAASAAAASAAAASAASGSPGPGEGSAGGEKRSTAPSAAASASASAAASSPAGGGAEALELLEHCGVCRERLRPEREPRLLPCLHSACSACLGPAAPAAANSSGDGGAAGDGTVVDCPVCKQQCFSKDIVENYFMRDSGSKAATDAQDANQCCTSCEDNAPATSYCVECSEPLCETCVEAHQRVKYTKDHTVRSTGPAKSRDGERTVYCNVHKHEPLVLFCESCDTLTCRDCQLNAHKDHQYQFLEDAVRNQRKLLASLVKRLGDKHATLQKSTKEVRSSIRQVSDVQKRVQVDVKMAILQIMKELNKRGRVLVNDAQKVTEGQQERLERQHWTMTKIQKHQEHILRFASWALESDNNTALLLSKKLIYFQLHRALKMIVDPVEPHGEMKFQWDLNAWTKSAEAFGKIVAERPGTNSTGPAPMAPPRAPGPLSKQGSGSSQPMEVQEGYGFGSGDDPYSSAEPHVSGVKRSRSGEGEVSGLMRKVPRVSLERLDLDLTADSQPPVFKVFPGSTTEDYNLIVIERGAAAAATGQPGTAPAGTPGAPPLAGMAIVKEEETEAAIGAPPTATEGPETKPVLMALAEGPGAEGPRLASPSGSTSSGLEVVAPEGTSAPGGGPGTLDDSATICRVCQKPGDLVMCNQCEFCFHLDCHLPALQDVPGEEWSCSLCHVLPDLKEEDGSLSLDGADSTGVVAKLSPANQRKCERVLLALFCHEPCRPLHQLATDSTFSLDQPGGTLDLTLIRARLQEKLSPPYSSPQEFAQDVGRMFKQFNKLTEDKADVQSIIGLQRFFETRMNEAFGDTKFSAVLVEPPPMSLPGAGLSSQELSGGPGDGP [TRIM28]”, the “solubility in G1/S (log2)” value in the data set on HeLa Kyoto [1] turned out to be 0.119. Also, the thermal stability score amounted to 1.33 in the data set with HeLa Kyoto [2] (setting [5]) and 6.59 with HeLa Kyoto [2] (cell cycle stage: mitosis). The values for the melting temperature with HeLa Kyoto [3] (cell cycle stage: G1/S) and in the data set on HeLa Kyoto [3] (cell cycle stage: mitosis) were 48.2 °C and 49.2 °C, respectively. The “solubility change mitosis (log2)” value with HeLa Kyoto [4] was -0.0696.

Consider “MPAPEQASLVEEGQPQTRQEAASTGPGMEPETTATTILASVKEQELQFQRLTRELEVERQIVASQLERCRLGAESPSIASTSSTEKSFPWRSTDVPNTGVSKPRVSDAVQPNNYLIRTEPEQGTLYSPEQTSLHESEGSLGNSRSSTQMNSYSDSGYQEAGSFHNSQNVSKADNRQQHSFIGSTNNHVVRNSRAEGQTLVQPSVANRAMRRVSSVPSRAQSPSYVISTGVSPSRGSLRTSLGSGFGSPSVTDPRPLNPSAYSSTTLPAARAASPYSQRPASPTAIRRIGSVTSRQTSNPNGPTPQYQTTARVGSPLTLTDAQTRVASPSQGQVGSSSPKRSGMTAVPQHLGPSLQRTVHDMEQFGQQQYDIYERMVPPRPDSLTGLRSSYASQHSQLGQDLRSAVSPDLHITPIYEGRTYYSPVYRSPNHGTVELQGSQTALYRTGSVGIGNLQRTSSQRSTLTYQRNNYALNTTATYAEPYRPIQYRVQECNYNRLQHAVPADDGTTRSPSIDSIQKDPREFAWRDPELPEVIHMLQHQFPSVQANAAAYLQHLCFGDNKVKMEVCRLGGIKHLVDLLDHRVLEVQKNACGALRNLVFGKSTDENKIAMKNVGGIPALLRLLRKSIDAEVRELVTGVLWNLSSCDAVKMTIIRDALSTLTNTVIVPHSGWNNSSFDDDHKIKFQTSLVLRNTTGCLRNLSSAGEEARKQMRSCEGLVDSLLYVIHTCVNTSDYDSKTVENCVCTLRNLSYRLELEVPQARLLGLNELDDLLGKESPSKDSEPSCWGKKKKKKKRTPQEDQWDGVGPIPGLSKSPKGVEMLWHPSVVKPYLTLLAESSNPATLEGSAGSLQNLSAGNWKFAAYIRAAVRKEKGLPILVELLRMDNDRVVSSVATALRNMALDVRNKELIGKYAMRDLVNRLPGGNGPSVLSDETMAAICCALHEVTSKNMENAKALADSGGIEKLVNITKGRGDRSSLKVVKAAAQVLNTLWQYRDLRSIYKKDGWNQNHFITPVSTLERDRFKSHPSLSTTNQQMSPIIQSVGSTSSSPALLGIRDPRSEYDRTQPPMQYYNSQGDATHKGLYPGSSKPSPIYISSYSSPAREQNRRLQHQQLYYSQDDSNRKNFDAYRLYLQSPHSYEDPYFDDRVHFPASTDYSTQYGLKSTTNYVDFYSTKRPSYRAEQYPGSPDSWV [PKP4]”, for which the “solubility in G1/S (log2)” value in the data set on HeLa Kyoto [1] is -0.319. The figures for the thermal stability score in the data set on HeLa Kyoto [2] (setting [5]) and in the data set on HeLa Kyoto [2] (cell cycle stage: mitosis) were -0.193 and -0.925, respectively. This substance also had a melting temperature in the data set on HeLa Kyoto [3] (cell cycle stage: G1/S) of 50.6 °C. Also, in the data set with HeLa Kyoto [4], the “solubility change mitosis (log2)” value was determined as 0.0763.
